Laboratory results published in patent US20200317802A1 (Merck KGaA, published 2020).

T1: recombinant human ADAMTS5 (R&D Systems cat #2198-AD) (human, UniProt Q9UNA0 262-622, limits assumed)
T1 sequence: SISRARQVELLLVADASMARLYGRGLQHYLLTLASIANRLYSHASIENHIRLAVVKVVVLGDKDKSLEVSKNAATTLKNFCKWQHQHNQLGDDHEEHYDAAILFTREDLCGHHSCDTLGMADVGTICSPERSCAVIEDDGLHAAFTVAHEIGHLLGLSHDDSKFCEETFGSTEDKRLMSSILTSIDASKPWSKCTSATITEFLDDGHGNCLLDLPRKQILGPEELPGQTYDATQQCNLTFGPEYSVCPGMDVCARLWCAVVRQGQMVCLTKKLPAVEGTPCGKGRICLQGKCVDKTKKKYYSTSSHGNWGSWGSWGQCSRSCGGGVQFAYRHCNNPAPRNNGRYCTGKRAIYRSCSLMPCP

T2: rat recombinant ADAMTS5 (rat, UniProt Q9R001 262-618 (mouse entry))
T2 construct: in house, HEK293, His tag in the entry
T2 chain: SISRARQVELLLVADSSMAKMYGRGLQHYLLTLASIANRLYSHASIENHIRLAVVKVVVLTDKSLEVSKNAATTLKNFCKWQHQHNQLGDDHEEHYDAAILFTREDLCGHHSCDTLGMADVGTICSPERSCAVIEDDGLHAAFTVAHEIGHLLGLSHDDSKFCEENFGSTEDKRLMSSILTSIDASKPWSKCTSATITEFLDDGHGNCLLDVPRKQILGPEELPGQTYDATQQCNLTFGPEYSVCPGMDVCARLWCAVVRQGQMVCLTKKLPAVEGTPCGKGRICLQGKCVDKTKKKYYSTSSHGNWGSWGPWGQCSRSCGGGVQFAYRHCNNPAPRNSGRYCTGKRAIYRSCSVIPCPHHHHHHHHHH

B1: Nanobody 049 (11B06 (N52S)) (VHH)
VHH: EVQLVESGGGLVQAGGSLRLSCAASGLTFRRNAMGWFRQAPGKERELLAGISWSGGTTYYVDSVKGRFTISRDNAKNTVDLQMISPKPEDTAVYYCAADGDIGTLVNDENPRYWGQGTLVTVSS
notes: N-glycosylation motif knocked out; also called construct 049
B2: Nanobody 093 (3F04 (N100fQ)) (VHH)
VHH: EVQLVESGGGSVQAGGSLRLSCVASGRYPMAWFRQAPGKEREFVAGVSWGGDRTYYADSVQGRFTVSRDYAKNTLYLQMNSLKPEDAAVYYCAGDPWGRLFRVKDQYSDWGQGTLVTVSS
notes: N-glycosylation motif knocked out; also called construct 093

Tests used:
[1] = biological target: T1, recombinant human ADAMTS5 (R&D Systems …); assay: cell-based or functional assay
rat recombinant ADAMTS5 = biological target: T2, rat recombinant ADAMTS5; assay: SPR kinetics, Biacore T100, ADAMTS5 immobilised
Experimental: (§1) For referencing, affinity for human ADAMTS5 was also determined. Thereto, rat and human ADAMTS5 were immobilized onto a CM5 chip via amine coupling, using EDC and NHS chemistry. Purified Nanobodies were injected for 2 minutes at different concentrations (between 1 and 1000 nM) and allowed to dissociate for 25 min at a flow rate of 45 μl/min. The kinetic constants were calculated from the sensorgrams using the BIAEvaluation software (1:1 interaction).

[2] = biological target: T1, recombinant human ADAMTS5 (R&D Systems …); assay: SPR kinetics, Biacore T100, ADAMTS5 immobilised
Experimental: as §1

Row | Binder | AlphaLISA IC50, - HSA [1] | Kd (rat recombinant ADAMTS5) | Kd [2]
1 | B1 | 0.1 nM | 1.7 nM | 3.5 nM
2 | B2 |  | 5.3 nM | 4.9 nM
